Assay results as given in patent US20170173114A1, “METHODS AND COMPOSITIONS FOR INDUCTION OF UCP1 EXPRESSION” (Joslin Diabetes Center, Inc., priority 2014, published 2017).

How the values were obtained:
PTGS2 (COX2) = experiment: PTGS2 mRNA / COX2 protein expression in WT-1 brown preadipocytes; assay type: cell-based, murine
Method: (§1) Total RNA was isolated with QIAzol lysis reagent (Qiagen, Valencia, Calif.) and purified by RNeasy Mini columns (Qiagen) following the manufacture's instructions. cDNA was prepared from total RNA using the Advantage RT-PCR kit (BD Biosciences, Palo Alto, Calif.) according to manufacturer's instructions. Diluted cDNA was used in a PCR reaction with SYBR Green Master Mix (Applied Biosystems, Foster City, Calif.) and primers specifically designed for detection of the gene of interest. PCR reactions were run in duplicate for each sample and quantitated in the ABI Sequence Detection System (Applied Biosystems). Data were expressed as arbitrary units after normalization to levels of expression of internal controls for each sample. Sequences of primers for specific genes are each obtained from the published literature or designed using publically available gene sequence databases. Unless otherwise indicated, gene expression data described in the examples below was obtained using QPCR.
Cells were harvested in lysis buffer (50 mM HEPES, 137 mM NaCl, 1 mM MgCl2, 1 mM CaCl2, 10 mM Na2P2O7, 10 mM NaF, 2 mM EDTA, 10% glycerol, 1% Igepal CA-630, 2 mM vanadate, 10 μg/ml of leupeptin, 10 μg/ml of aprotinin, 2 mM phenylmethylsulfonyl fluoride; pH 7.4). After lysis, lysates were clarified by centrifugation at 12,000×g for 20 min at 4° C., the amount of protein in the supernatants was determined by the Bradford Protein Assay (Bio-Rad Laboratories, Hercules, Calif.). Proteins were directly solubilized in Laemmli sample buffer. Equal amounts of lysates were separated by sodium dodecyl sulfate-polyacrylamide gel electrophoresis and transferred to Immobolin-P membranes. Membranes were blocked overnight at 4° C. and incubated with the indicated antibody for 2 hours at room temperature. Specifically bound primary antibodies were detected with peroxidase-coupled secondary antibody and enhanced chemiluminescence (ECL, Amersham Biosciences, Piscataway, N.J.).
To determine if FGF4, FGF5, FGF6, FGF10, FGF16, FGF17, FGF18 or FGF20 induced either UCP1 mRNA or PTGS2 mRNA expression, murine brown preadipocyte WT-1 cells (Tseng et al., Nat. Cell. Biol. (2005) 7(6):601-611) were grown in growth media (DMEM-high glucose+10% FBS) supplemented with FGF4, FGF5, FGF6, FGF10, FGF16, FGF17, FGF18, FGF20 or buffer (control) in combination with insulin (20 nM) and triidothyronine (T3, 1 nM) for three days. All FGFs were used at a dosage of 200 ng/mL. mRNA was isolated and UCP1 and PTGS2 gene expression levels were evaluated by quantitative reverse transcription polymerase chain reaction (Q-RT-PCR) analysis. All experiments were performed triplicate and the data are presented as mean+/−SEM.
To determine if FGF1 or FGF10 induce UCP1 mRNA expression or PTGS2 mRNA expression, murine brown preadipocyte WT-1 cells (Tseng et al., Nat. Cell. Biol. (2005) 7(6):601-611) were grown in growth media (DMEM-high glucose+10% FBS) supplemented with FGF1, FGF10 or vehicle (control) in combination with insulin (20 nM) and triidothyronine (T3, 1 nM) for three days. FGF1 and FGF10 were used at a dosage of 50 ng/mL, 100 ng/mL or 300 ng/mL. mRNA was isolated and UCP1 and PTGS2 expression levels were evaluated by quantitative reverse transcription polymerase chain reaction (Q-RT-PCR) analysis. All experiments were performed triplicate and the data are presented as mean+/−SEM.
To test the role of specific prostaglandins (PGs) in activating UCP1 expression, WT-1 brown adipocytes were pretreated with PGE2, PGI2 and FGF6 for 24 hours. mRNA expression levels of UCP1, PTGS2, LDHA, PDK1 and PKM2 were then measured.

[1] = system: PPARγ, aP2, FAS, PRDM16, PGC1α, CIDEA; experiment: Adipogenic and brown fat marker mRNA expression in WT-1 brown preadipocytes; assay type: cell-based, murine
Method: as §1
(§2) The effect of FGF6 on differentiation of WT-1 murine brown preadipocytes was also examined. WT-1 cells can be induced to undergo brown adipocyte differentiation, characterized by lipid accumulation and expression of adipogenic and brown fat markers, as described above (Klein et al. (1999) J Biol Chem 274:34795; Tseng et al. (2005) Nat Cell Biol 7:601). WT-1 cells were treated with FGF6 in growth media (DMEM+10% FBS), a vehicle control (“control” or “C” referred to in FIGS. 3A-D), or induction media (“induction” or “I” referred to in FIGS. 3A-D) as described above for seven days. Following the treatment, cells were examined for the color of the culture media in combination with oil Red O staining, expression of adipogenic markers, expression of brown fat markers, immunofluorescent staining of cells with UCP1 and DPAI, and Western blot analysis to determine the presence of UCP1 and β-tubulin. The results are described in FIGS. 3A to 3D.
FGF2, FGF6 and FGF9 were used at a dosage of 50 ng/mL, 100 ng/mL, 200 ng/mL or 300 ng/mL. FGF21 was used at the dosage of 50 ng/ml and 500 ng/mL. The concentration of BMP7 was 3.3 nM. RNA was isolated and UCP1 and PPARγ expression levels were evaluated by quantitative reverse transcription polymerase chain reaction (Q-RT-PCR) analysis after 24 hours (i.e., 1 day) (FIG. 14A), 2 days (FIG. 14B), 5 days (FIG. 14C) and 7 days (FIG. 14D) of treatment. All experiments were performed triplicate and the data are presented as mean+/−SEM.
FGF2, FGF6 and FGF9 were used at a dosage of 200 ng/mL. FGF21 was used at a dosage of 500 ng/mL. The concentration of BMP7 was 3.3 nM. mRNA was isolated and UCP1 and PPARγ expression levels were evaluated by quantitative reverse transcription polymerase chain reaction (Q-RT-PCR) analysis after 24 hours (i.e., 1 day), 2 days, 5 days and 7 days of treatment (FIG. 15). All experiments were performed triplicate and the data are presented as mean+/−SEM.

[2] = system: WT-1 murine brown preadipocytes; experiment: Oil Red O staining of lipid accumulation in WT-1 cells; assay type: cell-based; conditions: WT-1, absence of induction cocktail
Method: Cell culture dishes were washed twice with phosphate-buffered saline and fixed with 10% buffered formalin overnight at 4° C. Cells were then stained for 2 hours at room temperature with a filtered oil red O solution (0.5% oil red O in isopropyl alcohol), washed twice with distilled water, and visualized.
as §2

B1: FGF6: fibroblast growth factor 6; recombinant human FGF from R&D Systems, or mouse FGF6 cDNA overexpressed by lentiviral vector (protein)
chain: KRQRRLYCNVGIGFHLQVLPDGRISGTHEENPYSLLEISTVERGVVSLFGVRSALFVAMNSKGRLYATPSFQEECKFRETLLPNNYNAYESDLYQGTYIALSKYGRVKRGSKVSPIMTVTHFLPRI
PTGS2 (COX2); 200 ng/mL with insulin and T3, three days
  PTGS2 mRNA expression relative to the control: increased
PTGS2 (COX2); 50-300 ng/mL, three days
  PTGS2 mRNA expression: induced
PTGS2 (COX2); 50-300 ng/mL, three days, dose-dependent
  COX2 protein expression, Western blot: increased
PTGS2 (COX2); WT-1, 24 hours, vs vehicle
  PTGS2 mRNA expression: significantly induced
[1]; 200 ng/mL with insulin and T3, 1, 2, 5, 7 days
  PPARγ expression level, time course: very low levels of PPARγ
[1]; 50-300 ng/mL with insulin and T3, 1, 2, 5 and 7 days
  PPARγ expression level: very low levels of PPARγ
[1]; 50-300 ng/mL, three days
  expression of transcriptional regulators of UCP1 (PGC1α, PPARγ, PRDM16): did not increase
[1]; WT-1, seven days
  mRNA expression of other brown fat markers (PRDM16, PGC1α, CIDEA): did not, in contrast, have as significant an impact
[1]; WT-1, seven days, control, induction media or FGF6
  mRNA expression of adipogenic markers (PPARγ, aP2, FAS): only the induction media significantly increased each of the adipogenic markers
[2]
  lipid accumulation by Oil Red O staining: very little to no lipid accumulation
